What was measured:
asf1b_human ASF1B = asf1b_human ASF1B (UniProt Q9NVP2)
caf1a_human CHAF1A = caf1a_human CHAF1A (UniProt Q13111)
DAXX, Q9UER7-1 [1] = molecular target: DAXX, Q9UER7-1
DAXX, Q9UER7-1 [2] = molecular target: DAXX, Q9UER7-1; remark: listed apart in the source

Sequence of DAXX, Q9UER7-1 (Q9UER7 whole entry): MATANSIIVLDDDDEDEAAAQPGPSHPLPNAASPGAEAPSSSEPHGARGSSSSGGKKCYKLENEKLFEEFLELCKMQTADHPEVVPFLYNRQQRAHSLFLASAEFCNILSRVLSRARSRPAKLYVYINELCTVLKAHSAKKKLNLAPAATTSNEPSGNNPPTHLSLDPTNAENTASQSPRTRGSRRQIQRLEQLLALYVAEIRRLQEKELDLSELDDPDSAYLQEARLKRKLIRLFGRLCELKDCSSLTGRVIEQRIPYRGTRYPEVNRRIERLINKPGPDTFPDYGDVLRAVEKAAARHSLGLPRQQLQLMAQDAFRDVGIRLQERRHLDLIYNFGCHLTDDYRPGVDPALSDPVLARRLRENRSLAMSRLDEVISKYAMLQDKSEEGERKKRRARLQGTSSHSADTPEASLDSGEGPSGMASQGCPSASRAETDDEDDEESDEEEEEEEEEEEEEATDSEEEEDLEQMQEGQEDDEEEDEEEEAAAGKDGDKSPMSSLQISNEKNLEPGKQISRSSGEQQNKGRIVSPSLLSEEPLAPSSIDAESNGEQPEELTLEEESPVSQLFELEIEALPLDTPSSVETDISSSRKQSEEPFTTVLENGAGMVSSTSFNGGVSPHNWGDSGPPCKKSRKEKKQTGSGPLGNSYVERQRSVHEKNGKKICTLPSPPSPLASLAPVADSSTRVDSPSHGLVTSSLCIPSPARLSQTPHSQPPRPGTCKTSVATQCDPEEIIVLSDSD
Sequence of caf1a_human CHAF1A (Q13111 whole entry): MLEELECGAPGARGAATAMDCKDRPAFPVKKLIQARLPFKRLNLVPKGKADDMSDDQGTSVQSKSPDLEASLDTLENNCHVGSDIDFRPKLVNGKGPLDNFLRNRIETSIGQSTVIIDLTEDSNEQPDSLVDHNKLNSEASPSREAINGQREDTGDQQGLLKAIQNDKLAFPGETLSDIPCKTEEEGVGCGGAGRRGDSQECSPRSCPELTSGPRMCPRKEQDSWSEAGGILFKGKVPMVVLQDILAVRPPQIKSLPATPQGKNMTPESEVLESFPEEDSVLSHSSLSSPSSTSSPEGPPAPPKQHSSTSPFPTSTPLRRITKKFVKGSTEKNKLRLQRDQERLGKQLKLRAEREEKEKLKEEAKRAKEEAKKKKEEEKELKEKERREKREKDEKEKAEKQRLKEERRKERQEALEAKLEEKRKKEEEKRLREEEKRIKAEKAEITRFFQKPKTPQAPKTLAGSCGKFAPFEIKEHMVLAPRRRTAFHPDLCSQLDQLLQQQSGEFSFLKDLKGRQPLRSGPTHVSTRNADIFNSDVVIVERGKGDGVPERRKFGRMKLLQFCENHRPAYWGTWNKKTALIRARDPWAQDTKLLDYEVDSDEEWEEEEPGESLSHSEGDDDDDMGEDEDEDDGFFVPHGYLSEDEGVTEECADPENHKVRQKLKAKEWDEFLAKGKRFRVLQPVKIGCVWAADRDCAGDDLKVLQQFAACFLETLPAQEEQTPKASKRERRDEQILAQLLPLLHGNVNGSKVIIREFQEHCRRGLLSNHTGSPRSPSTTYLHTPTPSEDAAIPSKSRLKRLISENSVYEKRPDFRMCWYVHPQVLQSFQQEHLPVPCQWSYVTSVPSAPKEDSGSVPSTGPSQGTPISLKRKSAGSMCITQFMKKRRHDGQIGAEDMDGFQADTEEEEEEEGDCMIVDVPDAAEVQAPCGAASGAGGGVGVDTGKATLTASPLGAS
Sequence of asf1b_human ASF1B (Q9NVP2 whole entry): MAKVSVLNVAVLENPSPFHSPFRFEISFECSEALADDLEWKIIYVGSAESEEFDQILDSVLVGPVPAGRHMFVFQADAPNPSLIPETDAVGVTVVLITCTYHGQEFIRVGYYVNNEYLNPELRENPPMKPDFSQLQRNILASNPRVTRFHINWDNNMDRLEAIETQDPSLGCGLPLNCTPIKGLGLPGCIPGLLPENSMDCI

With “Histone H3.3 (Homo sapiens) (from UniProt P84243) C111E” the “effect of a mutation on the interaction” value (asf1b_human ASF1B) was “disrupting interaction strength”.

“Histone H3.3 (Homo sapiens) (from UniProt P84243) G91M” was tested, and the “effect of a mutation on the interaction” value (caf1a_human CHAF1A) was “increasing interaction strength” and the “effect of a mutation on the interaction” value (DAXX, Q9UER7-1 [1]) was “decreasing interaction strength”.

In the case of “Histone H3.2 (Homo sapiens) (from UniProt Q71DI3) M91G”, the “effect of a mutation on the interaction” value (DAXX, Q9UER7-1 [2]) is reported as “increasing interaction strength”.
